Data: FireProtDB (doi:10.1006/jmbi.1999.3146)
Values joined by “and” are separate entries in the source; they are usually repeats but may differ in a detail not shown here. Equal entries are not always repeated.

Conditions: Myxococcus xanthus, Thermal, DSC, reversible: yes, whole UniProt chain shown
[1] = pH 3, glycine-HCl 20 mM, CaCl2 3 mM
[2] = pH 6, Sodium cacodylate 20 mM, CaCl2 3 mM

B1: Development-specific protein S wild type, P02966 (protein)
chain: MANITVFYNEDFQGKQVDLPPGNYTRAQLAALGIENNTISSVKVPPGVKAILYQNDGFAGDQIEVVANAEELGPLNNNVSSIRVISVPVQPRARFFYKEQFDGKEVDLPPGQYTQAELERYGIDNNTISSVKPQGLAVVLFKNDNFSGDTLPVNSDAPTLGAMNNNTSSIRIS
pH 1.5, glycine-HCl 20 mM, CaCl2 3 mM
  unfolding enthalpy (calorimetric): 51.9 kcal/mol and 44.5 kcal/mol
pH 1.5, glycine-HCl 20 mM
  unfolding enthalpy (calorimetric): 48.8 kcal/mol and 42.8 kcal/mol
pH 1.75, glycine-HCl 20 mM, CaCl2 3 mM
  unfolding enthalpy (calorimetric): 50.9 kcal/mol and 46.9 kcal/mol
pH 2, glycine-HCl 20 mM, CaCl2 3 mM
  unfolding enthalpy (calorimetric): 58.6 kcal/mol and 49.2 kcal/mol and 50.2 kcal/mol
pH 2, glycine-HCl 20 mM
  Tm: 47.9 °C
  unfolding enthalpy (calorimetric): 55.2 kcal/mol
pH 2.25, glycine-HCl 20 mM, CaCl2 3 mM
  unfolding enthalpy (calorimetric): 66 kcal/mol and 55.2 kcal/mol and 54.5 kcal/mol
pH 2.25, glycine-HCl 20 mM
  Tm: 38.3 °C
  unfolding enthalpy (calorimetric): 65.7 kcal/mol
pH 2.5, glycine-HCl 20 mM, CaCl2 3 mM
  unfolding enthalpy (calorimetric): 77 kcal/mol and 59 kcal/mol and 60.5 kcal/mol
[1]
  Tm: 55 °C and 57.3 °C and 59 °C
  unfolding enthalpy (calorimetric): 94.2 kcal/mol and 77.2 kcal/mol and 62.1 kcal/mol
pH 3, glycine-HCl 20 mM
  Tm: 53.7 °C and 54.6 °C
  unfolding enthalpy (calorimetric): 89.2 kcal/mol and 69.5 kcal/mol
[2]
  Tm: 70.1 °C
  unfolding enthalpy (calorimetric): 79.1 kcal/mol
pH 6, Sodium cacodylate 20 mM
  Tm: 68.9 °C
  unfolding enthalpy (calorimetric): 67.9 kcal/mol
pH 9, glycine-NaOH 20 mM
  unfolding enthalpy (calorimetric): 83.7 kcal/mol and 66.4 kcal/mol and 65 kcal/mol
